This is an account of results in patent US20080311122A1 (AstraZeneca / MedImmune, published 2008).

The test has as its target T1, HMGB1 in sera of septic peritonitis mice (mouse, UniProt P63158 1-215).
T1 construct: also called HMGB1 from sepsis sera (ELISA); peritonitis sera
T1 sequence (looked up): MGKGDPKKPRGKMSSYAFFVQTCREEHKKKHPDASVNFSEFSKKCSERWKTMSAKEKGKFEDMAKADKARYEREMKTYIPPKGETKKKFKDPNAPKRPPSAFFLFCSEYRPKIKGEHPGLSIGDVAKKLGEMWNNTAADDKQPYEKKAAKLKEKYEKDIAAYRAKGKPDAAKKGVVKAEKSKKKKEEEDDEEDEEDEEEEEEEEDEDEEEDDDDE
Put plainly: sandwich ELISA: antibody (10 ug/ml) captured on anti-human Fc, sample added, mouse anti-HMGB1 and anti-mouse-HRP, OD 450. The protocol: HMGB1 Detection from Biological Samples: For detection of the HMGB1 from AA joint homogenates and peritonitis sera, sandwich ELISA was performed. Goat anti-human Fc (Pierce) 14 μg/ml in PBS was coated on Immunlon IV microtiter plate over night at 4° C. After washing and blocking with 5% milk 1 hr at room temperature, G4 or S6 in blocking buffer (10 μg/ml) were added to each well of the blocked plate. The plate was washed 1 hour later and 25 μl of AIA homogenates containing 0.8 μg/ml of HMGB1 or peritonitis sera containing 7 μg/ml of HMGB1 in 0.5 M NaCl/blocking buffer were added to the wells at two fold serial dilutions. The unbound materials were removed by washing one hr after incubation. The bound HMGB1 was detected by a mouse anti-HMGB1 antibody at 2 μg/ml followed by an anti-mouse antibody conjugated with horseradish peroxidase. Mouse peritonitis sera was obtained by heart puncture 7 days after infection with heat killed staphylococcus aureus. Joint lysate was prepared from the whole paw of AIA rats as described in Example 6 below. Human sepsis sera were purchased from a commercial source.
A general note: ELISA stands for enzyme-linked immunosorbent assay.

B1: anti-HMG1 antibody S6 (antibody, V domains shown)
VH: EVQLLESGGGLVQPGGSLRLSCAASGFTFSWYDMSWVRQAPGKGLEWVSRISPSGGYTMYADSVKGRFTISRDNSKNTLYLQMNSLRAEDTAVYYCARLEVGATSGGTAFDIWGQGTMVTVSS
VL: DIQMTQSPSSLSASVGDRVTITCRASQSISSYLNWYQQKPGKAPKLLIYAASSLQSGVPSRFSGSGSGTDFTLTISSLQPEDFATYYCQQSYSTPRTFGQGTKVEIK
notes: also called ATCC PTA-6143
For B1, the binding result is given as “binds”.
